Literature values as cited in paper PMC293425.

Molecular target: relaxin receptor LGR7 (Homo sapiens) (UniProt Q9HBX9)
Sequence of UniProt Q9HBX9 (Q9HBX9 whole entry): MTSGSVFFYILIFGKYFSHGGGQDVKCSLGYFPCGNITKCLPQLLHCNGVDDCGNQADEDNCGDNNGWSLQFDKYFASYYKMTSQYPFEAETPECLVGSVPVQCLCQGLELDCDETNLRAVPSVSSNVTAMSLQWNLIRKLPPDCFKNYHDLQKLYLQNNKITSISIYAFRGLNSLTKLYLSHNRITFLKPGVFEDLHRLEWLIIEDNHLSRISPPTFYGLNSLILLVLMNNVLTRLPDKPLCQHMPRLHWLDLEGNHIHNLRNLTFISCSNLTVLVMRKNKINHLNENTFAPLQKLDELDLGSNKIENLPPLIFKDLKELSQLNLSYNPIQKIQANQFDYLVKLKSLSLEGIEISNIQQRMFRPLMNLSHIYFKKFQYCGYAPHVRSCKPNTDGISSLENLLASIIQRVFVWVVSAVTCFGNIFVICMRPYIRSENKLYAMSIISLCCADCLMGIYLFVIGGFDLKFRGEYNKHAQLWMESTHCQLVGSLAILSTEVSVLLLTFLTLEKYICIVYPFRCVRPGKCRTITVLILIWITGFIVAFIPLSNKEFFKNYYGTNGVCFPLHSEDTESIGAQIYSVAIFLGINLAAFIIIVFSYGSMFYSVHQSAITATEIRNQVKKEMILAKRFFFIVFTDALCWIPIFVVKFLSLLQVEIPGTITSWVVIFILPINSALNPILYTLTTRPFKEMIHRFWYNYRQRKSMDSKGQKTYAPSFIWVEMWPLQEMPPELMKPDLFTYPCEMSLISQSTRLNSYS

Sequence of relaxin (P04090 162-185): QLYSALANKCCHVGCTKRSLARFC

Kd: 1 nM
Substance: relaxin (from UniProt P04090)
